The target in test [1] is T1, GB1-TAZ2 (human, UniProt Q09472 1723-1812, C1738A | C1746A | C1789A | C1790A).
T1 sequence (looked up): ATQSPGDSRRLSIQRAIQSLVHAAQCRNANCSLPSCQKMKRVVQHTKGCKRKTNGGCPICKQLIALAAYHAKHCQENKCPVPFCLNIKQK
In words: peptide or protein array.

The target of test [2] is T2, MITF_(81-204) (UniProt O75030-9 81-204).
T2 sequence (looked up): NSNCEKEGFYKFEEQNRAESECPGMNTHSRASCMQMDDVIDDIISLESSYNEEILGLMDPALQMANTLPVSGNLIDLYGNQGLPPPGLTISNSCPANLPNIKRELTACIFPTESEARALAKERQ
In words: ITC.

Test [3] concerns the target T3, GB1-MITF_(81-204) Δ123-127 (UniProt O75030-9 81-204, Δ123-127).
T3 sequence (looked up): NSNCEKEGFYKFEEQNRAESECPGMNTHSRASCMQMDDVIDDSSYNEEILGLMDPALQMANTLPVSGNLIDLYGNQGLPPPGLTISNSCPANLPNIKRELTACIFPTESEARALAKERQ
In words: pull-down.

Consider DDVIDDIISAESSYNEEIL (peptide, UniProt O75030-9 117-135, looked up) [MITF_(117-135) peptide, Leu126 mutated to alanine], for which, in test [1], the binding result was “binds”.
Turning to DDVIDDIISLASSYNEEIL (peptide, UniProt O75030-9 117-135, looked up) [MITF_(117-135) peptide, Glu127 mutated to alanine], the binding result in test [1] was “binds”.
In the case of DDVIDAIISLESSYNEEIL (peptide, UniProt O75030-9 117-135, looked up) [MITF_(117-135) peptide, Asp122 mutated to alanine], the binding result in test [1] was “binds”.
DDVIADIISLESSYNEEIL (peptide, UniProt O75030-9 117-135, looked up) [MITF_(117-135) peptide, Asp121 mutated to alanine]: the binding result in test [1] is reported as “binds”.
As for DDVIDDIASLESSYNEEIL (peptide, UniProt O75030-9 117-135, looked up) [MITF_(117-135) peptide, Ile124 mutated to alanine], the binding result in test [1] is “binds”.
DDVIDDIIALESSYNEEIL (peptide, UniProt O75030-9 117-135, looked up) [MITF_(117-135) peptide, Ser125 mutated to alanine]: the binding result in test [1] is “binds”.
On to DAVIDDIISLESSYNEEIL (peptide, UniProt O75030-9 117-135, looked up) [MITF_(117-135) peptide, Asp118 mutated to alanine], for which the binding result in test [1] was “binds”.

B1: TAZ1 (residues 346-440 of CBP) (domain or fragment)
chain: not shown
Consider B1, for which the Kd in test [2] was determined as 6.7 ± 0.5 µM.
Turning to DDVADDIISLESSYNEEIL (peptide, UniProt O75030-9 117-135, looked up) [MITF_(117-135) peptide, Ile120 mutated to alanine], the binding result in test [1] was “binds”.

B2: TAZ2 (residues 1723-1812 of p300 with four stabilizing mutations) (domain or fragment, human, UniProt Q09472 1723-1812, looked up)
chain: ATQSPGDSRRLSIQRAIQSLVHAAQCRNANCSLPSCQKMKRVVQHTKGCKRKTNGGCPICKQLIALAAYHAKHCQENKCPVPFCLNIKQK
On to B2, for which the affinity in test [2], expressed as Kd, was 1.24 ± 0.23 µM. Besides, in test [3], the binding result is given as “binds”.
Take ADVIDDIISLESSYNEEIL (peptide, UniProt O75030-9 117-135, looked up) [MITF_(117-135) peptide, Asp117 mutated to alanine]: the binding result in test [1] is “binds”.
With DDAIDDIISLESSYNEEIL (peptide, UniProt O75030-9 117-135, looked up) [MITF_(117-135) peptide, Val119 mutated to alanine], the binding result in test [1] is given as “binds”.
DDVIDDAISLESSYNEEIL (peptide, UniProt O75030-9 117-135, looked up) [MITF_(117-135) peptide, Ile123 mutated to alanine]: the binding result in test [1] is given as “binds”.

Source of the values: paper doi:10.1101/2022.08.28.505448 (bioRxiv, 2022).
